According to patent US20240269306A1, “B7H4-TARGETED ANTIBODY-DRUG CONJUGATES AND METHODS OF USE THEREOF” (Mersana Therapeutics, Inc., priority 2021, published 2024):
Like-named read-outs stand apart in the source and are kept apart here.

Experiments:
[1] = target: T1, Recombinant human B7-H4 protein (R&D Systems #6576-B7-050) (human) (UniProt Q7Z7D3); experiment: BLI (Octet)
T1 sequence: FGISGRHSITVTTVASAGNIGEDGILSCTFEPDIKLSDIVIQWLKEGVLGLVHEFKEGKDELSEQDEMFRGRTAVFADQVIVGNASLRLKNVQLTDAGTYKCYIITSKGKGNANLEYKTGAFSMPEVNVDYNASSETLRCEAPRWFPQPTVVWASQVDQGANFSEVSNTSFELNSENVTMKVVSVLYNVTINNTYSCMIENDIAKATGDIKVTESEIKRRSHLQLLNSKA

[2] = target: T1, Recombinant human B7-H4 protein (R&D Systems #6576-B7-050) (human); experiment: BLI (Octet), antibody on anti-human Fc sensor, human B7-H4 in solution, 25 C
[3] = target: T1, Recombinant human B7-H4 protein (R&D Systems #6576-B7-050) (human); experiment: ELISA, coated recombinant human B7-H4
[4] = target: T2, Human B7-H4 on the cell surface (MX-1, HCC1569, CAMA-1 cells; HEK-293 cells stably transfected with human B7-H4) (human) (UniProt Q7Z7D3); experiment: flow cytometry, HCC1569 cells
T2 sequence: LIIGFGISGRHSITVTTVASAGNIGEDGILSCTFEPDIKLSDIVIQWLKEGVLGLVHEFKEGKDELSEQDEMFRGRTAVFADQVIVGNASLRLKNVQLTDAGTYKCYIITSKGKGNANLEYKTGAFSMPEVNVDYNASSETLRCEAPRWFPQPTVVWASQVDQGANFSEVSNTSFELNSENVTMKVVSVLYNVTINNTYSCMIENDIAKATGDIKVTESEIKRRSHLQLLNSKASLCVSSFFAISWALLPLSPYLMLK

[5] = target: T1, Recombinant human B7-H4 protein (R&D Systems #6576-B7-050) (human); experiment: ELISA, coated recombinant human B7-H4; remark: listed apart in the source
[6] = target: T2, Human B7-H4 on the cell surface (MX-1, HCC1569, CAMA-1 cells; HEK-293 cells stably transfected with human B7-H4) (human); experiment: flow cytometry, MX-1 cells
[7] = target: T2, Human B7-H4 on the cell surface (MX-1, HCC1569, CAMA-1 cells; HEK-293 cells stably transfected with human B7-H4) (human); experiment: flow cytometry, MX-1 cells; remark: listed apart in the source

fold difference of kon against B7-H4 2F9 and variant antibodies [1]: < 2 fold | fold lower Kd than B7-H4 2F9 [1]: > 100 fold | Kd [2]: 0.117 nM | koff [2]: 1.46e-05 s⁻¹ | kon [2]: 125000 M⁻¹ s⁻¹ | EC50 [3]: 0.86 nM | EC50 [4]: 3.44 nM | EC50 [5]: 0.52 nM | EC50 [6]: 8.83 nM | EC50 [7]: 4.9 nM
B1: 1D11 antibody (antibody, from another filing, V domains shown)
VH: QVQLQQSGAELVRPGTSVKMSCKASGYTFTSYWIGWAKQRPGHGFEWIGDIYPGGGYTNYNEKFKGKATLTADKSSSTAYMQFSSLTSEDSAIYYCARLDGSSYRGAMDSWGQGTSITVSS
VL: DIQMTQSPSSLSASLGGKVTITCKASQGFNKYVAWYQHKPGQCPRLLIHYTSTLQPGIPARFSGSGSGRDYSFSISNLEPEDSATYFCLQYGNLLYAFGGGTKLEIKR
